Laboratory results: US20230242610A1
One block for each substance: values may come before it.

Legend:
TMEM16A-GFP (mouse) = TMEM16A-GFP (mouse) (UniProt Q8BHY3); test: SiMPull, GFP photobleaching step count (stoichiometry)
mTMEM16A (mouse) = mTMEM16A (mouse) (UniProt Q8BHY3); test: cell-based or functional assay
mTMEM16A (mouse), sequence (Q8BHY3 whole entry): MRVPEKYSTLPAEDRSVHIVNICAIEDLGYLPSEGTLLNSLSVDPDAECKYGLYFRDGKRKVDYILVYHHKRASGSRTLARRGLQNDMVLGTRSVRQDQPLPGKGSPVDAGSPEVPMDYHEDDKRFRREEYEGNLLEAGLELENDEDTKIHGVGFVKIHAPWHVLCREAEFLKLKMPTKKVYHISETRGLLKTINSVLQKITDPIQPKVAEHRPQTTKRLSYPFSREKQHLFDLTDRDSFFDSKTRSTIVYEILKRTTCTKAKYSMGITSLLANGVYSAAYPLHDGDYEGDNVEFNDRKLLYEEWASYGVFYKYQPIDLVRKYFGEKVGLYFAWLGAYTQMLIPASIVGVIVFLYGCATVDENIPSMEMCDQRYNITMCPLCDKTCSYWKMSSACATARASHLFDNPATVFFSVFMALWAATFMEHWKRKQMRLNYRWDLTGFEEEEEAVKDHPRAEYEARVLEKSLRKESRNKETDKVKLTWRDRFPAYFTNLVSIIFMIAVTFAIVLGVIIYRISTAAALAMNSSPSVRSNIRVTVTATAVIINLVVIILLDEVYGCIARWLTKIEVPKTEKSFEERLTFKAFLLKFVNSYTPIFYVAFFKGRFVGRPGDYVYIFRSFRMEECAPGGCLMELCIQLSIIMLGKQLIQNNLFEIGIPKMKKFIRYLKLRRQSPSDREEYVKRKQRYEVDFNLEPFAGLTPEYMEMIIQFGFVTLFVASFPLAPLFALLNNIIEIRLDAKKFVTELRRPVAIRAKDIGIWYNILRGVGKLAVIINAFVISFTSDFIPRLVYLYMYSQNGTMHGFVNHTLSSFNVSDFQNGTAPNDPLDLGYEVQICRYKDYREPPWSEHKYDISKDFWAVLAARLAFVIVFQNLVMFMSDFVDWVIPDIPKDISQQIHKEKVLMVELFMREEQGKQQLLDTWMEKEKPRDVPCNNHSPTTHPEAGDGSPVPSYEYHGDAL

share of pulled-down spots with one-step photobleaching of TMEM16A-GFP (TMEM16A-GFP (mouse)): 20%
share of pulled-down spots with three-step photobleaching of TMEM16A-GFP (TMEM16A-GFP (mouse)): 10%
share of pulled-down spots with two-step photobleaching of TMEM16A-GFP (TMEM16A-GFP (mouse)): 70%
Substance: HA-KCNE1 (from UniProt P15382 1-129)

current density at +100 mV, HEK293T co-expressing TMEM16A and KCNE1 T7I (mTMEM16A (mouse)): 24.7 pA/pF
Substance: KCNE1 T7I (from UniProt P15382 1-129)

current density at +100 mV, HEK293T co-expressing TMEM16A and KCNE1 S38G (mTMEM16A (mouse)): 6.96 pA/pF
Substance: KCNE1S38G (from UniProt P15382 1-129)

current density at +100 mV, HEK293T co-expressing TMEM16A and KCNE1ΔCt (mTMEM16A (mouse)): 25 pA/pF
Substance: KCNE1ΔCt (from UniProt P15382 1-66)

current density at +100 mV, HEK293T co-expressing TMEM16A and KCNE1ΔNt16 (mTMEM16A (mouse)): 25.4 pA/pF
Substance: KCNE1ΔNt16 (from UniProt P15382 16-129)

current density at +100 mV, HEK293T co-expressing TMEM16A and KCNE1ΔNt30 (mTMEM16A (mouse)): 25.2 pA/pF
Substance: KCNE1ΔNt30 (from UniProt P15382 30-129)

current density at +100 mV, HEK293T co-expressing TMEM16A and KCNE1ΔNt (mTMEM16A (mouse)): 6.56 pA/pF
Substance: KCNE1ΔNt (from UniProt P15382 43-129)

current density at +100 mV with 1 mM BAPTA, HEK293T, TMEM16A co-expressed with KCNE1 (against TMEM16A alone) (mTMEM16A (mouse)): 22 pA/pF
current density at +100 mV, whole-cell patch clamp, HEK293T co-expressing both proteins (mTMEM16A (mouse)): 18.1 pA/pF
Substance: hKCNE1 (from UniProt P15382 1-129)
